Laboratory results from patent US20110070615A1 (published 2011).

target: T1, hu IGF-1R(ECD)-C3-muIgG1Fc (human; mouse, Glycosylated. About 60% of the preparation is cleaved at RKRR (chain pos 708-711) into disulfide-linked alpha and beta chains, 40% is uncleaved. Dimer through receptor and Fc disulfides.); experiment: phage Fab ELISA, IGF-1R-C3-mFc coated at 5 µg/ml, anti-M13-HRP
T1 construct: 60% of the purified protein was processed into α and β chains, 40% unprocessed; also called IGF-1R(ECD)-C3-muFc; IGF-1R-C3-muFc
Method: In 96-well 2-ml deep-well blocks, 480 μl/well 2×YT-CG broth was inoculated with 20 μl of overnight cultures of the individual clones, then incubated at 37° C., 300 rpm for 3 hours. To each well, 50 μl of 1:3 diluted M13KO7 helper phage were added to infect the cells. The block was incubated at 37° C. without shaking for 30 minutes, and then shaken gently for another 30 minutes at 150 rpm. The block was centrifuged at 3600 rpm for 20 minutes to pellet the infected cells. The cell pellet in each well was suspended into 480 μl of 2×YT-CK (2×YT broth containing 100 μg/ml carbenicillin and 40 μg/ml kanamycin), and incubated at 30° C. overnight for about 20 hours. The cell debris was separated by centrifugation at 3600 rpm for 20 minutes. The rescued phage supernatant was used in the phage ELISA to check for IGF-1R-specific, INSR-cross reactive, or mouse Fc binding of individual clones.
Three sets of Nunc MaxiSorb Immunoplates were coated with 100 μ/well of IGF-1R-C3-mFc at 5 μg/ml, INSR-mFc at 5 μg/ml, or mouse IgG1 (catalog #010-0103, Rockland, Gilbertsville, Pa.) at 2 μg/ml in PBS, respectively, at 4° C. overnight. The coated plates were washed 3× with […] of PBS. The washed plates were blocked with 300 μl/well 2% MPBS at room temperature for one hour. Meanwhile, rescued phages of individual clones were pre-blocked by mixing 170 μof rescued phage with 170 μl of 4% MPBS. The blocked plates were washed 5× with 300 μl/well TBST (TBS: 10 mM Tris-HCl, pH 7.5, 1 mM EDTA, 150 mM NaCl; Tween-20. 0.1%). 100 μl/well of pre-blocked phage dilutions were distributed to each set of coated plate, which were incubated at room temperature on a rocker for 90 minutes. The plates were washed 5× with 300 μl/well TBST. 100 μl/well of anti-M13-HRP in 2% MPBS (1:3000 dilution, catalog number 27-9421-01, Amersham Pharmacia Biotech) were distributed, and plates were incubated at room temperature on rocker for one hour. The plates were washed 5× with 300 μl/well TBST. 100 μl/well of the substrate 1-Step™ ABTS (Pierce Biotechnology, Rockford, Ill., catalog number 37615) were added. Plates were incubated for one hour. OD₄₀₅ was measured for signal detection.

| binding result | Binder |
| --- | --- |
| binds | L16H16 (Fab, V domains shown) VH: QVQLQESGPGLVKPSGTLSLTCAVSGGSISSSNWWSWVRQPPGKGLEWIGEIYHSGSTNYNPSLKSRVTISVDKSKNQFSLKLSSVTAADTAVYYCARWTGRTDAFDIWGQGTMVTVSS VL: not shown |
| binds | L19H19 (Fab, V domains shown) VH: QVQLVESGPGLVKPSGTLSLTCAVSGGSISSSNWWSWVRQPPGKGLEWIGEIYHSGSTNYNPSLKSRVTISVDKSKNQFSLKLSSVTAADTAVYYCARDSSGFYGMDVWGQGTTVTVSS VL: not shown |
| binds | L20H20 (Fab, V domains shown) VH: QVQLQESGPGLVKPSGTLSLTCAVSGGSISSSNWWSWVRQPPGKGLEWIGEIYHSGSTNYNPSLKSRVTISVDKSKNQFSLKLSSVTAADTAVYYCARSSSWYWNAFDIWGQGTMVTVSS VL: not shown |
| binds | L18H18 (Fab, V domains shown) VH: QVQLVESGGGVVRPGGSLRLSCAASGFTFSSYAMSWVRQAPGKGLEWVSTISGSGGSTYYADSVKGRFTISRDNSKNTLYLQMNSLRAEDTAVYYCAKERGSGWSLDNMDVWGQGTTVTVSS VL: DIQLTQSPSSVSASVGDRVTITCRASQGISRWLAWYQQKPGKAPRLLIYAASGLQSGVPSRFSGSGSGTDFTLTISNLQPEDFATYYCQQASSFPITFGQGTRLETK |
